± gives the standard error. For some assays here: This sample holds only a part of the variants without activity. Some results are limits rather than exact numbers.

The chains are these.
B1: glmS ribozyme (parent)
chain: AUAAAAGCGCCAGAACUACAGAAAUGUAGUUGACGAGGAGGAGGUUUAUCGAAUUUUCGGCGGAUGCCUCCAAA

Conditions in all cases: with glucosamine-6-phosphate
In data set [1] the parent is B1. Nature of the data set: self-cleavage kobs at 40 uM GlcN6P; higher = faster cleavage; RNA array. The gist of the method: (§1)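 Glucosamine-6-phosphate, from 40 μM to 10 mM in HEPES/KCl/Mg(OAc)2 buffer, was flowed over sequenced MiSeq chips carrying barcoded ribozyme variants transcribed in situ by E. coli RNA polymerase. A hybridised Cy3 probe tracked the variants at 37 °C as tiles were imaged over ~14 h. kobs, kcat and KM were obtained by fitting normalised per-tile medians to exponential decays and then applying weighted Michaelis–Menten fits across concentrations.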

Data set [2] covers variants of B1. Nature of the data set: self-cleavage kobs at 10000 uM GlcN6P; higher = faster cleavage; RNA array. The procedure, abridged: as §1
Variants of B1 are the subject of data set [3]. Nature of the data set: kcat; higher = faster cleavage; RNA array. The gist of the method:
as §1

In data set [4] the parent is B1. Briefly: self-cleavage kobs at 2500 uM GlcN6P; higher = faster cleavage; RNA array. The procedure, abridged: as §1
Variants of B1 are the subject of data set [5]. Nature of the data set: KM; higher = weaker cofactor use; RNA array. The gist of the method:
as §1

Variants of B1 are the subject of data set [6]. Nature of the data set: self-cleavage kobs at 160 uM GlcN6P; higher = faster cleavage; RNA array. The procedure, abridged: as §1
Variants of B1 are the subject of data set [7]. Briefly: self-cleavage kobs at 640 uM GlcN6P; higher = faster cleavage; RNA array. The procedure, abridged:
as §1

As to G7A G38U C58A, the “self-cleavage kobs at 40 uM GlcN6P” value in the data set with glucosamine-6-phosphate [1] was below 1e-05 s⁻¹. For the same variant, the “self-cleavage kobs at 10000 uM GlcN6P” value with glucosamine-6-phosphate [2] was below 1e-05 s⁻¹.
The term kcat denotes the maximal rate divided by the concentration of active sites. Consider A36C G59A, for which the kcat in the data set with glucosamine-6-phosphate [3] is below 1e-05 s⁻¹. In addition, in the data set with glucosamine-6-phosphate [4], the “self-cleavage kobs at 2500 uM GlcN6P” value is below 1e-05 s⁻¹. In the data set with glucosamine-6-phosphate [2], the “self-cleavage kobs at 10000 uM GlcN6P” value is below 1e-05 s⁻¹.
For the variant A6C G13A A52C, the “self-cleavage kobs at 40 uM GlcN6P” value with glucosamine-6-phosphate [1] is below 1e-05 s⁻¹. In the data set with glucosamine-6-phosphate [4], the “self-cleavage kobs at 2500 uM GlcN6P” value is below 1e-05 s⁻¹. In addition, the “self-cleavage kobs at 10000 uM GlcN6P” value in the data set with glucosamine-6-phosphate [2] is below 1e-05 s⁻¹.
The KM is the concentration of substrate that gives half-maximal velocity. In the case of A15C A53C, the kcat in the data set with glucosamine-6-phosphate [3] stood at 0.00123 ± 0.00037 s⁻¹. The KM with glucosamine-6-phosphate [5] is 2900 ± 1400 µM. Also, in the data set with glucosamine-6-phosphate [1], the “self-cleavage kobs at 40 uM GlcN6P” value came out at 2.74e-05 ± 1.3e-05 s⁻¹. In the data set with glucosamine-6-phosphate [6], the “self-cleavage kobs at 160 uM GlcN6P” value is 5.14e-05 ± 1.6e-05 s⁻¹. Besides, the “self-cleavage kobs at 640 uM GlcN6P” value with glucosamine-6-phosphate [7] was 0.000308 ± 6e-05 s⁻¹. Further, the “self-cleavage kobs at 2500 uM GlcN6P” value with glucosamine-6-phosphate [4] turned out to be 0.000472 ± 0.00011 s⁻¹. For the same variant, in the data set with glucosamine-6-phosphate [2], the “self-cleavage kobs at 10000 uM GlcN6P” value stood at 0.00102 ± 0.00019 s⁻¹.
Regarding A64U C68A, in the data set with glucosamine-6-phosphate [1], the “self-cleavage kobs at 40 uM GlcN6P” value was below 1e-05 s⁻¹. For the same variant, the “self-cleavage kobs at 640 uM GlcN6P” value with glucosamine-6-phosphate [7] is below 1e-05 s⁻¹. Besides, the “self-cleavage kobs at 10000 uM GlcN6P” value with glucosamine-6-phosphate [2] is below 1e-05 s⁻¹.
As for G37A G63A, the KM with glucosamine-6-phosphate [5] amounted to 278 ± 110 µM.
For A42G A53G, in the data set with glucosamine-6-phosphate [5], the KM is 248 ± 95 µM. Further, the “self-cleavage kobs at 40 uM GlcN6P” value with glucosamine-6-phosphate [1] came out at 0.00144 ± 0.00031 s⁻¹. In addition, the “self-cleavage kobs at 160 uM GlcN6P” value with glucosamine-6-phosphate [6] came out at 0.00422 ± 0.0013 s⁻¹. Further, the “self-cleavage kobs at 640 uM GlcN6P” value in the data set with glucosamine-6-phosphate [7] was found to be 0.00893 ± 0.0025 s⁻¹. Further, the “self-cleavage kobs at 2500 uM GlcN6P” value with glucosamine-6-phosphate [4] came to 0.0414 ± 0.018 s⁻¹. Also, in the data set with glucosamine-6-phosphate [2], the “self-cleavage kobs at 10000 uM GlcN6P” value was found to be 0.00932 ± 0.0024 s⁻¹.
As for U55A A64U, the kcat with glucosamine-6-phosphate [3] stood at 0.000202 ± 3.2e-05 s⁻¹. Besides, in the data set with glucosamine-6-phosphate [5], the KM was found to be 4540 ± 1600 µM. In the data set with glucosamine-6-phosphate [1], the “self-cleavage kobs at 40 uM GlcN6P” value was below 1e-05 s⁻¹. Besides, the “self-cleavage kobs at 2500 uM GlcN6P” value with glucosamine-6-phosphate [4] was 7.6e-05 ± 1.1e-05 s⁻¹. The “self-cleavage kobs at 10000 uM GlcN6P” value in the data set with glucosamine-6-phosphate [2] is 0.000138 ± 1.5e-05 s⁻¹.
Regarding G9A G37A, the “self-cleavage kobs at 40 uM GlcN6P” value in the data set with glucosamine-6-phosphate [1] was below 1e-05 s⁻¹. For the same variant, the “self-cleavage kobs at 160 uM GlcN6P” value with glucosamine-6-phosphate [6] is below 1e-05 s⁻¹. The “self-cleavage kobs at 640 uM GlcN6P” value in the data set with glucosamine-6-phosphate [7] was below 1e-05 s⁻¹. Besides, the “self-cleavage kobs at 2500 uM GlcN6P” value with glucosamine-6-phosphate [4] is below 1e-05 s⁻¹. Besides, the “self-cleavage kobs at 10000 uM GlcN6P” value with glucosamine-6-phosphate [2] was below 1e-05 s⁻¹.
As to G38U U49A C67A, the kcat in the data set with glucosamine-6-phosphate [3] was found to be 1.26e-05 ± 4.6e-06 s⁻¹.
In the case of A33G C34U C68U, the “self-cleavage kobs at 40 uM GlcN6P” value in the data set with glucosamine-6-phosphate [1] is below 1e-05 s⁻¹.
Consider C10U A52U, for which the “self-cleavage kobs at 40 uM GlcN6P” value with glucosamine-6-phosphate [1] is below 1e-05 s⁻¹. Besides, in the data set with glucosamine-6-phosphate [6], the “self-cleavage kobs at 160 uM GlcN6P” value is below 1e-05 s⁻¹. The “self-cleavage kobs at 640 uM GlcN6P” value with glucosamine-6-phosphate [7] is below 1e-05 s⁻¹. In addition, the “self-cleavage kobs at 2500 uM GlcN6P” value with glucosamine-6-phosphate [4] is below 1e-05 s⁻¹. In addition, the “self-cleavage kobs at 10000 uM GlcN6P” value in the data set with glucosamine-6-phosphate [2] was below 1e-05 s⁻¹.
U30C A52U: the “self-cleavage kobs at 40 uM GlcN6P” value with glucosamine-6-phosphate [1] was below 1e-05 s⁻¹. Moreover, in the data set with glucosamine-6-phosphate [7], the “self-cleavage kobs at 640 uM GlcN6P” value was below 1e-05 s⁻¹.
For the variant U30A G60A, the kcat with glucosamine-6-phosphate [3] is below 1e-05 s⁻¹. For the same variant, the “self-cleavage kobs at 40 uM GlcN6P” value with glucosamine-6-phosphate [1] was below 1e-05 s⁻¹. The “self-cleavage kobs at 640 uM GlcN6P” value with glucosamine-6-phosphate [7] is below 1e-05 s⁻¹.
For the variant A48G A53C, the kcat with glucosamine-6-phosphate [3] turned out to be 5.9e-05 ± 9.7e-06 s⁻¹. Moreover, the “self-cleavage kobs at 2500 uM GlcN6P” value in the data set with glucosamine-6-phosphate [4] amounted to 7.97e-05 ± 1.7e-05 s⁻¹. In the data set with glucosamine-6-phosphate [2], the “self-cleavage kobs at 10000 uM GlcN6P” value amounted to 5.4e-05 ± 7.2e-06 s⁻¹.
Regarding U45A U56C, the kcat with glucosamine-6-phosphate [3] was 0.00585 ± 0.0022 s⁻¹. For the same variant, the KM with glucosamine-6-phosphate [5] was 3070 ± 1400 µM. Also, the “self-cleavage kobs at 40 uM GlcN6P” value with glucosamine-6-phosphate [1] came to 7.22e-05 ± 1e-05 s⁻¹. The “self-cleavage kobs at 160 uM GlcN6P” value with glucosamine-6-phosphate [6] amounted to 0.000234 ± 3.5e-05 s⁻¹. Also, the “self-cleavage kobs at 640 uM GlcN6P” value with glucosamine-6-phosphate [7] stood at 0.0014 ± 0.00014 s⁻¹. Besides, the “self-cleavage kobs at 2500 uM GlcN6P” value in the data set with glucosamine-6-phosphate [4] amounted to 0.00259 ± 0.00069 s⁻¹. For the same variant, the “self-cleavage kobs at 10000 uM GlcN6P” value with glucosamine-6-phosphate [2] came to 0.00411 ± 0.00072 s⁻¹.
In the case of A53U G66A, the kcat with glucosamine-6-phosphate [3] came to 0.0162 ± 0.0055 s⁻¹. The KM with glucosamine-6-phosphate [5] turned out to be 2370 ± 1000 µM. Further, the “self-cleavage kobs at 40 uM GlcN6P” value in the data set with glucosamine-6-phosphate [1] turned out to be 0.000372 ± 5.2e-05 s⁻¹. The “self-cleavage kobs at 160 uM GlcN6P” value with glucosamine-6-phosphate [6] amounted to 0.000827 ± 0.00015 s⁻¹. Besides, the “self-cleavage kobs at 640 uM GlcN6P” value with glucosamine-6-phosphate [7] is 0.00327 ± 0.00068 s⁻¹. For the same variant, the “self-cleavage kobs at 2500 uM GlcN6P” value with glucosamine-6-phosphate [4] was 0.00666 ± 0.0024 s⁻¹. The “self-cleavage kobs at 10000 uM GlcN6P” value with glucosamine-6-phosphate [2] turned out to be 0.0144 ± 0.0026 s⁻¹.
In the case of C11U C50U, the KM with glucosamine-6-phosphate [5] amounted to 98.2 ± 43 µM.
For the variant G43U U54G, the kcat with glucosamine-6-phosphate [3] was 8.63e-05 ± 2.8e-05 s⁻¹. In addition, the “self-cleavage kobs at 2500 uM GlcN6P” value with glucosamine-6-phosphate [4] was 6.89e-05 ± 1.8e-05 s⁻¹. Further, the “self-cleavage kobs at 10000 uM GlcN6P” value with glucosamine-6-phosphate [2] came to 6.53e-05 ± 2.3e-05 s⁻¹.

The values above are taken from the supplement of paper PMC7125110.
